One may read the Km as the substrate concentration at which the rate is half of its maximum. One may read the kcat as the maximal rate divided by the concentration of active sites. A word on the stoichiometry N: it is the number of molecules, sites or subunits per partner or assembly.

The source of these data is PMC10272179, “Structural insight into the human SID1 transmembrane family member 2 reveals its lipid hydrolytic activity” (Nature Communications, 2023).

Substrate in data set [1]: CCCCCCCCCCCCC/C=C/[C@@H](O)[C@H](CO)NC(=O)CCCCCCCCCCCCCCCCC
The data set is described as follows: LC-MS quantification of sphingosine, Michaelis-Menten fit. Format: biochemical, Homo sapiens. The following applies: 0.3 μM enzyme, 25 mM Tris pH 8.0, 150 mM NaCl, 0.02% DDM, 0.002% CHS micelles, room temperature, 30 min.

Data set [2] concerns the molecule itself. The data set is described as follows: cryo-EM structure; purified SIDT2 in GDN micelles; three samples: pH 7.4 (HEPES, 150 mM NaCl), pH 5.5 (MES) and pH 5.5 plus miRNA2911 (RNA:protein 5:1); refinement with C2 symmetry; no conformational change between the three.

B1: human SIDT2 (SID1 transmembrane family member 2) (Homo sapiens) (protein)
chain: HLGVLGPKNVSQKDAEFERTYVDEVNSELVNIYTFNHTVTRNRTEGVRVSVNVLNKQKGAPLLFVVRQKEAVVSFQVPLILRGMFQRKYLYQKVERTLCQPPTKNESEIQFFYVDVSTLSPVNTTYQLRVSRMDDFVLRTGEQFSFNTTAAQPQYFKYEFPEGVDSVIVKVTSNKAFPCSVISIQDVLCPVYDLDNNVAFIGMYQTMTKKAAITVQRKDFPSNSFYVVVVVKTEDQACGGSLPFYPFAEDEPVDQGHRQKTLSVLVSQAVTSEAYVSGMLFCLGIFLSFYLLTVLLACWENWRQKKKTLLVAIDRACPESGHPRVLADSFPGSSPYEGYNYGSFENVSGSTDGLVDSAGTGDLSYGYQGRSFEPVGTRPRVDSMSSVEEDDYDTLTDIDSDKNVIRTKQYLYVADLARKDKRVLRKKYQIYFWNIATIAVFYALPVVQLVITYQTVVNVTGNQDICYYNFLCAHPLGNLSAFNNILSNLGYILLGLLFLLIILQREINHNRALLRNDLCALECGIPKHFGLFYAMGTALMMEGLLSACYHVCPNYTNFQFDTSFMYMIAGLCMLKLYQKRHPDINASAYSAYACLAIVIFFSVLGVVFGKGNTAFWIVFSIIHIIATLLLSTQLYYMGRWKLDSGIFRRILHVLYTDCIRQCSGPLYVDRMVLLVMGNVINWSLAAYGLIMRPNDFASYLLAIGICNLLLYFAFYIIMKLRSGERIKLIPLLCIVCTSVVWGFALFFFFQGLSTWQKTPAESREHNRDCILLDFFDDHDIWHFLSSIAMFGSFLVLLTLDDDLDTVQRDKIYVF
notes: full-length (832 residues, with signal peptide), C-terminal FLAG and His8 tags, expressed in HEK293F, purified in GDN; homodimer
As to B1, in data set [1], the Km was 9.0 µM and the kcat amounted to 0.00012 s⁻¹.

B2: human SID1 transmembrane family member 2 (SIDT2), full-length (natural protein, UniProt Q8NBJ9 19-832, looked up)
chain: HLGVLGPKNVSQKDAEFERTYVDEVNSELVNIYTFNHTVTRNRTEGVRVSVNVLNKQKGAPLLFVVRQKEAVVSFQVPLILRGMFQRKYLYQKVERTLCQPPTKNESEIQFFYVDVSTLSPVNTTYQLRVSRMDDFVLRTGEQFSFNTTAAQPQYFKYEFPEGVDSVIVKVTSNKAFPCSVISIQDVLCPVYDLDNNVAFIGMYQTMTKKAAITVQRKDFPSNSFYVVVVVKTEDQACGGSLPFYPFAEDEPVDQGHRQKTLSVLVSQAVTSEAYVSGMLFCLGIFLSFYLLTVLLACWENWRQKKKTLLVAIDRACPESGHPRVLADSFPGSSPYEGYNYGSFENVSGSTDGLVDSAGTGDLSYGYQGRSFEPVGTRPRVDSMSSVEEDDYDTLTDIDSDKNVIRTKQYLYVADLARKDKRVLRKKYQIYFWNIATIAVFYALPVVQLVITYQTVVNVTGNQDICYYNFLCAHPLGNLSAFNNILSNLGYILLGLLFLLIILQREINHNRALLRNDLCALECGIPKHFGLFYAMGTALMMEGLLSACYHVCPNYTNFQFDTSFMYMIAGLCMLKLYQKRHPDINASAYSAYACLAIVIFFSVLGVVFGKGNTAFWIVFSIIHIIATLLLSTQLYYMGRWKLDSGIFRRILHVLYTDCIRQCSGPLYVDRMVLLVMGNVINWSLAAYGLIMRPNDFASYLLAIGICNLLLYFAFYIIMKLRSGERIKLIPLLCIVCTSVVWGFALFFFFQGLSTWQKTPAESREHNRDCILLDFFDDHDIWHFLSSIAMFGSFLVLLTLDDDLDTVQRDKIYVF
modifications: N-linked glycans resolved at N27, N54, N60, N123, N141 and N165
notes: SIDT2, human, full-length cDNA; 832-amino acid protein with a signal peptide, BRD1 (23-152), BRD2 (157-287), CTD between TM1 and TM2, and eleven TMs; Expressed from the full-length cDNA with its own signal peptide; also called apoSIDT2-pH 7.4; apoSIDT2-pH 5.5
Consider B2, for which, in data set [2], the “stoichiometry N” value came out at 2.
